The results in this text go back to publication doi:10.1101/2021.04.23.441157.

Common to all, as to test: TIRF microscopy of filaments on supported lipid bilayers
Test [1] has as its target Cdc11a-Cdc11bCTE-capped septin octamer (Ashbya gossypii | S. cerevisiae) (UniProt P32468).
The target of test [2] is Cdc11a-capped septin hetero-octamer (recombinant Ashbya gossypii septin complex) (Ashbya gossypii | S. cerevisiae) (UniProt P32468).
Test [3] addresses Cdc11b-Cdc11aCTE-capped septin octamer (Ashbya gossypii | S. cerevisiae) (UniProt P32468).
Test [4] deals with Cdc11b-capped septin hetero-octamer (recombinant Ashbya gossypii septin complex) (Ashbya gossypii | S. cerevisiae) (UniProt P32468).

In test [1], “Cdc11a-Cdc11bCTE-capped septin octamer (from UniProt P32468 1-407) (complex)” yielded an average filament length at steady state of 0.94 µm and an average filament length at steady state, in octamers of 29 octamers.
For the substance “Cdc11a-capped septin hetero-octamer (recombinant Ashbya gossypii septin complex) (from UniProt P32468 1-407)”, in test [2], the average filament length at steady state came to 0.72 µm and the average filament length at steady state, in octamers came to 23 octamers.
For the substance “Cdc11b-Cdc11aCTE-capped septin octamer (from UniProt P32468 1-407) (complex)”, in test [3], the average filament length at steady state was determined as 0.55 µm and the average filament length at steady state, in octamers is 17 octamers.
Consider “Cdc11b-capped septin hetero-octamer (recombinant Ashbya gossypii septin complex) (from UniProt P32468 1-407)”, for which, in test [4], the average filament length at steady state was 0.52 µm and the average filament length at steady state, in octamers stood at 16 octamers.
